Molecular target: T1, PhiC31 integrase (Streptomyces phage PhiC31) (UniProt Q9T221)
T1 sequence: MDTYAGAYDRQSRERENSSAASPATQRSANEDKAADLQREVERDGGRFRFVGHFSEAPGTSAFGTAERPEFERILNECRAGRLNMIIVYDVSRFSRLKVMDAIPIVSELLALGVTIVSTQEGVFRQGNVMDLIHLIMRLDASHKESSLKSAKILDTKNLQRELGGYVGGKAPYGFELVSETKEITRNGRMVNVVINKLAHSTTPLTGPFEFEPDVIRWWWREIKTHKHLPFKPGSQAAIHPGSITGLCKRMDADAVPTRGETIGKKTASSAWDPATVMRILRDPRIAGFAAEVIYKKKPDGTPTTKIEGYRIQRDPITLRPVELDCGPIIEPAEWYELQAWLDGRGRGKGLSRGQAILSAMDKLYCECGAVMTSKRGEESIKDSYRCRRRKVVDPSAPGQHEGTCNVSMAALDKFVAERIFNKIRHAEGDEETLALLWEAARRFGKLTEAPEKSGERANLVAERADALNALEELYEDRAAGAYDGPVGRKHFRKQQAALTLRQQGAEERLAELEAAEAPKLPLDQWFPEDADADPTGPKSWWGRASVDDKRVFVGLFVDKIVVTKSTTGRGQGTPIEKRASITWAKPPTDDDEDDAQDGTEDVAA
Test: cell_activity
Details: S. pombe FY527attP, pLT45+pLT43; 63 without integrase, 120 with thiamine repression

Substance: attB (pLT45, 500 bp fragment) ; attP 84 bp (pLT44)
- activity (transformants per 10^7 cells): 1100

Reference: US20050054106
